Measured values as given in US20220041692A1.
Bridge positions count the residues as written; N and C are the ends. Ends that are not written are not given here.

Target: polyclonal mouse anti-TSHR antibodies contained in sera from Ad-TSHR-immunized mice
Test: competition ELISA: sera pre-incubated with peptide 19, binding of polyclonal anti-TSHR antibodies to coated TSHR-Fc

IC50: 20 nM
B1: cyclic peptide 19 (peptide)
peptide: CHQEEDFRVTC
modifications: disulfide 1-11
